Assay results reported in patent US20020028202A1 (Biogen, published 2002).

Legend:
Assay in all cases: staining of transfected COS-7 cells, FACS
[1] = target: T1, human gc chain mutant, NDK replaced by Ala (Domain 1 Loop CC), myc-tagged, on COS-7 cells (human, UniProt P31785 23-369)
T1 construct: whole, on cells; not shown: 9 amino acid myc tag at the 5' end of the construct
T1 sequence (looked up): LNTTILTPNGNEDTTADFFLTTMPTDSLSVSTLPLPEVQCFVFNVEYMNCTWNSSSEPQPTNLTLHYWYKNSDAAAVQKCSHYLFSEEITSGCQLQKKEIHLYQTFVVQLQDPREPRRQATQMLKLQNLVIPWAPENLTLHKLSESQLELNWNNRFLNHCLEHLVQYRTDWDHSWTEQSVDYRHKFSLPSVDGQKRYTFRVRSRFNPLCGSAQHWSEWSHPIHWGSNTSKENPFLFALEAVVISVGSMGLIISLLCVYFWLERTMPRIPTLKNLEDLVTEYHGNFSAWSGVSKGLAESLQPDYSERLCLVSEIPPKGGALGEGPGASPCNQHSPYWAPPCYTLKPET
Procedure: (§1) COS-7 cells are transiently transfected with 20 ug of DNA encoding the gc chain mutant or wildtype cDNA and 180 ug of herring sperm carrier DNA. After 2-3 days, COS-7 cells are harvested and analyzed by immnunofluorescent staining with anti-gc chain mAbs. MAbs are used at 10 ug/ml in PBS-1% BSA-0.02% sodium azide and allowed 30 minutes to bind to 1×10⁶ COS-7 cells. Cells are then washed 2 times, and bound mAb is detected with PE-conjugated goat anti-mouse Fc specific antibodies. The % of positive cells staining with the anti-gc chain mAb over an irrelevant control Ig is determined for a given gc chain mutant and for wildtype gc chain. […] Data are adjusted for any differences in level of expression of a mutant vs. wildtype constructs by measuring the binding of a mAb specific for a 9 amino acid myc tag engineered at the 5′ end of each gc chain construct. […] Values reduced from 100% indicate amino acid mutations which affect mAb binding.
(§2) The value “100%” indicates no effect of mutation and lower percentages indicate greater losses in binding as a result of the sequence change.

[2] = target: T2, human gc chain mutant, FNP replaced by Ala (Domain 2 Loop FQ), myc-tagged, on COS-7 cells (human, UniProt P31785 23-369)
T2 construct: whole, on cells; not shown: 9 amino acid myc tag at the 5' end of the construct
T2 sequence (looked up): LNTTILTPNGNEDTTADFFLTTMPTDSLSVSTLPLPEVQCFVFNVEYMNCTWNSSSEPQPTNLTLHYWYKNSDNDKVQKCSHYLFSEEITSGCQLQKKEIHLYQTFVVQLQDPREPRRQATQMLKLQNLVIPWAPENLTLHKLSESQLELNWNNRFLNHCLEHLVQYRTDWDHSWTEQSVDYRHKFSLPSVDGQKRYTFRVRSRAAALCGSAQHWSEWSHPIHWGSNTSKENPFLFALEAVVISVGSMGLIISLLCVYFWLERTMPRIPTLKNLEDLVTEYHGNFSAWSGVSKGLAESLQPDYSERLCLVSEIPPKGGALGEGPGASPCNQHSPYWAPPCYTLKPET
Procedure: as §1, §2

[3] = target: T3, human gc chain mutant, PW replaced by Ala (interdomain residues), myc-tagged, on COS-7 cells (human, UniProt P31785 23-369)
T3 construct: whole, on cells; not shown: 9 amino acid myc tag at the 5' end of the construct
T3 sequence (looked up): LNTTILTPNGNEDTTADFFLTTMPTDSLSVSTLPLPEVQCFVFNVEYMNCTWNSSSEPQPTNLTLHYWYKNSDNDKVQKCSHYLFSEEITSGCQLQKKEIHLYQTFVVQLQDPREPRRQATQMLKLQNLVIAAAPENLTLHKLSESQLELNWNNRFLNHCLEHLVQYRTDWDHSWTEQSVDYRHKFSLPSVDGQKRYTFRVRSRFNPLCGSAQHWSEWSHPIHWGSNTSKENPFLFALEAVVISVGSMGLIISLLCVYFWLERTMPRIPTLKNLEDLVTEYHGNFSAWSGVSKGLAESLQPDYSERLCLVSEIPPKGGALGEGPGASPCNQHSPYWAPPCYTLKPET
Procedure: as §1, §2

[4] = target: T4, human gc chain mutant, VEY replaced by Ala (Domain 1 Loop AB), myc-tagged, on COS-7 cells (human, UniProt P31785 23-369)
T4 construct: whole, on cells; not shown: 9 amino acid myc tag at the 5' end of the construct
T4 sequence (looked up): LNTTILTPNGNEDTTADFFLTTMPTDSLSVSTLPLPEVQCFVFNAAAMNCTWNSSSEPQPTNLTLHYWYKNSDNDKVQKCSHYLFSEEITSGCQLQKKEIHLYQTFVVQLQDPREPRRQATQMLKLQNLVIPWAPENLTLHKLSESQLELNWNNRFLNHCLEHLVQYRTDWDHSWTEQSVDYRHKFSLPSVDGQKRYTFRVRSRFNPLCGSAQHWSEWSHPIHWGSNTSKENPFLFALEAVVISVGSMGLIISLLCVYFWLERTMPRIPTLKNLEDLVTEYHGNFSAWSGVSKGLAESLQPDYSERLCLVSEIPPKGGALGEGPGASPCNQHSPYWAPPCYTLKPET
Procedure: as §1, §2

[5] = target: T5, human gc chain mutant, LNH replaced by Ala (Domain 2 Loop BC), myc-tagged, on COS-7 cells (human, UniProt P31785 23-369)
T5 construct: whole, on cells; not shown: 9 amino acid myc tag at the 5' end of the construct
T5 sequence (looked up): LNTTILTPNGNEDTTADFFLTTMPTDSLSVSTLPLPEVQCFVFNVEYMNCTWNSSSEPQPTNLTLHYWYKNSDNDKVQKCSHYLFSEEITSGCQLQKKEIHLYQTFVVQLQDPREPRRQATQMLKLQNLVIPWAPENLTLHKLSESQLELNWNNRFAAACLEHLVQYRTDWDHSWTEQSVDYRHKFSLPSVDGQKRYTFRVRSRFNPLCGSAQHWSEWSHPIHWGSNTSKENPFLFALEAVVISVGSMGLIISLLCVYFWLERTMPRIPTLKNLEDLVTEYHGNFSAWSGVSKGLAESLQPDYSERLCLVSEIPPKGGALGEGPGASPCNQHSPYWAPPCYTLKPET
Procedure: as §1, §2

[6] = target: T6, human gc chain mutant, LYQ replaced by Ala (Domain 1 Loop EF), myc-tagged, on COS-7 cells (human, UniProt P31785 23-369)
T6 construct: whole, on cells; not shown: 9 amino acid myc tag at the 5' end of the construct
T6 sequence (looked up): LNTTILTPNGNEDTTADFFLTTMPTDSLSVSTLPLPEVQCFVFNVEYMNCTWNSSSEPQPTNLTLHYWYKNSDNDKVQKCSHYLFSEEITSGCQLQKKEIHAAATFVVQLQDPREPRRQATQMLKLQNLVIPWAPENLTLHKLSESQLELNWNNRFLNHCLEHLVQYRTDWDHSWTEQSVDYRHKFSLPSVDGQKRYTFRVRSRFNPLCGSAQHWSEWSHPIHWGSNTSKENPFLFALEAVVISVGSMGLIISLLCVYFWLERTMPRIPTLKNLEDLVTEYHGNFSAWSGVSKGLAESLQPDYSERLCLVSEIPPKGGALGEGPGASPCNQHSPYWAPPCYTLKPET
Procedure: as §1, §2

% binding to mutant gc chain/wildtype gc chain [1]: 71%
% binding to mutant gc chain/wildtype gc chain [2]: 28%
% binding to mutant gc chain/wildtype gc chain [3]: 73%
% binding to mutant gc chain/wildtype gc chain [4]: 0%
% binding to mutant gc chain/wildtype gc chain [5]: 88%
% binding to mutant gc chain/wildtype gc chain [6]: 13%
B1: CP.B8 monoclonal antibody (murine anti-human gc chain, hybridoma ATCC HB-12107) (antibody, V domains shown)
VH: LQESGPGLVAPSQSLSITCTVSGFSLTSYGVHWVRQPPGKGLEWLGVIWAGGSTNYNSALMSRLNINRDNSKSQIFLKMNSLQTDDTAIYYCAREGSTVDSMDYWGQGTTVT
VL: DIVMTQSHKFMSTSVGDSITITCKASQDVTTAVAWYQQKPGQSPKLLIYWASTRHTGVPDRFTGSGSGTDYTLTISSVQAEDLALYYCQQHYITPWTFGGGTKLEI
notes: Used unconjugated and biotin-conjugated; also called CP.B8 mAb; mAb CP.B8
